Results as given in patent US20170129959A1 (OSE IMMUNOTHERAPEUTICS, published 2017).
Values joined by “and” are separate entries in the source; they are usually repeats but may differ in a detail not shown here. Equal entries are not always repeated.

Legend:
[1] = target: T1, Recombinant CD127 Fc Chimera (10975-H03H, Sino Biological) (human, UniProt P16871 21-239); test: ELISA, human CD127Fc coated, revealed with anti-human kappa antibody; printed as ED 50
T1 construct: Bought protein; also called hCD127-Ig; human CD127Fc; not shown: constant fragment of an immunoglobulin
T1 chain: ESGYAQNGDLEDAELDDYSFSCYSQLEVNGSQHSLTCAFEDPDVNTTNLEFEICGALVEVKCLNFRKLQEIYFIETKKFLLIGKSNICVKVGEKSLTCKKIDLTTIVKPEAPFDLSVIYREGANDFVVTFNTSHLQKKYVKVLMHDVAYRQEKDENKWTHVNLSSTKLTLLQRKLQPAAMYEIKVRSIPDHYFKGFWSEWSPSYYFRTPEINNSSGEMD

[2] = target: T2, Recombinant hCD127 (Sino Biologicals, reference 10975-H08H) (human, UniProt P16871 21-239); test: ELISA on immobilised recombinant hCD127; antibody stored 7 days at -80 °C
T2 construct: Bought protein; also called recombinant hCD127 antigen; rCD127
T2 chain: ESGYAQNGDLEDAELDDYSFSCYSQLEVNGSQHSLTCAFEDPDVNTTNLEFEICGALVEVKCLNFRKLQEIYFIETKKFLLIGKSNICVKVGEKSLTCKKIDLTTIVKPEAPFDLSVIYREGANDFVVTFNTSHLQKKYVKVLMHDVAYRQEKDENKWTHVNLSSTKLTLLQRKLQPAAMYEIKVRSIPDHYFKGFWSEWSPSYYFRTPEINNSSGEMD
Experimental: (§1) FIG. 15. Stability assay of humanized versus Rat anti-CD127 antibodies. Antibody concentrations was measured by ELISA after 7 days at 37° C. (Rat N13B2 wt (+) or humanized N13B2 h3 (square)) and at −80° C. (Rat N13B2 wt (X) or humanized N13B2 h3 (triangle)) and after four frost/defrost events (diamonds).
(§2) Humanized and chimeric purified N13B2-G1 were incubated at 37° C. or at −80° C. for 7 days. Two assays were used to measure stability of antibody: binding anti-CD127 by ELISA assay, and aggregate formation by gel filtration. For activity ELISA assay, recombinant hCD127 (Sino Biologicals, Beijing, China; reference 10975-H08H) was immobilized on plastic at lpg/ml and dilutions of supernatant were added to measure binding. […] For analysis of aggregate formation, sample was analysed on gel filtration chromatography column (Superdex 200, 10/300GL, GeHealthcare) to separate and evaluate aggregate and monomer from samples.

[3] = target: T1, Recombinant CD127 Fc Chimera …; test: ELISA, coated human CD127Fc, revealed with an anti-human kappa antibody
[4] = target: T2, Recombinant hCD127 (Sino Biologicals, …); test: ELISA on coated recombinant hCD127, anti-human kappa detection; antibody stored 7 days at -80 °C; printed as ED 50
Experimental: as §1, §2

[5] = target: T3, Human CD127 (IL-7 receptor alpha chain) expressed on cells (human, UniProt P16871 21-459); test: cell-based or functional assay
T3 chain: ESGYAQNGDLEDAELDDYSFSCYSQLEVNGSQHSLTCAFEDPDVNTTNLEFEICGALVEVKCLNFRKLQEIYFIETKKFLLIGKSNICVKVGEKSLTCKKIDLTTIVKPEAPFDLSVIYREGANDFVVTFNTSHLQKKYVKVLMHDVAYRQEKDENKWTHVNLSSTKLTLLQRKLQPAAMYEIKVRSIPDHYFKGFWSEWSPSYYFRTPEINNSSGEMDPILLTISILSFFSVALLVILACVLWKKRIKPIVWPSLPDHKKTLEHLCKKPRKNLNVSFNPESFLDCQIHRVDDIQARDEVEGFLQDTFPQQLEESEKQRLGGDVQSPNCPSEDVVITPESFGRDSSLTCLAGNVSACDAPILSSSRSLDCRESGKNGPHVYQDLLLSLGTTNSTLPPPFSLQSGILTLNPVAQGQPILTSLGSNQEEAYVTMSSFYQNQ

[6] = target: T2, Recombinant hCD127 (Sino Biologicals, …); test: ELISA on coated recombinant hCD127, anti-human kappa detection; antibody stored 7 days at 37 °C; printed as ED 50
Experimental: as §1, §2

[7] = target: T2, Recombinant hCD127 (Sino Biologicals, …); test: ELISA on immobilised recombinant hCD127; antibody stored 7 days at 37 °C
Experimental: as §1, §2

[8] = target: T3, Human CD127 (IL-7 receptor alpha chain) …; test: cell-based or functional assay
[9] = target: T3, Human CD127 (IL-7 receptor alpha chain) …; test: cell-based or functional assay
[10] = target: T1, Recombinant CD127 Fc Chimera …; test: SPR (Biacore 3000), CD127Fc immobilised on CM5 chip, antibody injected, Bivalent analyte model; separate experiment
Experimental: (§3) A CM5 chip (GE healthcare) was activated by injection of NHS/EDC mix for 7 min. […] The free reactive residues were inactivated by the injection of 1M ethanolamine pH8.5. […] The injection rate was set at 40 μL/min, the association was measured for 3 min and dissociation for 10 min. Between each cycle of the analysis, the chip was regenerated by injection of a solution of 5M MgCl2 for 60 s.

[11] = target: T2, Recombinant hCD127 (Sino Biologicals, …); test: ELISA, recombinant hCD127 coated on plastic at 1 µg/ml, antibody titrated; printed as ED 50
Experimental: FIG. 4. The Anti CD127 activity of the new antibody N13B2 was measured by ELISA assay using a recombinant hCD127 antigen. OD 450 nm: optical density at 450 nm. A. The CD127 binding activity of the N13B2 (full circle) was compared to the previous antibody generation (MD707-1 (empty diamond), 3 (empty triangle) and 6 (full square)). N13B2 appears as the most efficient binder in the assay. B. The CD127 activity between different N13B2 formats (rat, IgG1 (circle) or IgG4 (square)) was compared. No significant difference in binding activity was observed.
(§4) The binding activity of the anti hCD127 antibody was assessed by ELISA (Enzyme-linked immunosorbent assay). For the ELISA assay, recombinant hCD127 (Sino Biologicals, Beijing, China; reference 10975-H08H) was immobilized on plastic at 1 μg/ml and purified antibody were added to measure binding.

[12] = target: T2, Recombinant hCD127 (Sino Biologicals, …); test: ELISA on immobilised recombinant hCD127
Experimental: as §4

[13] = target: T1, Recombinant CD127 Fc Chimera …; test: SPR (Biacore 3000), CD127Fc immobilised on CM5 chip, antibody injected, Bivalent analyte model
Experimental: FIG. 3. (A) Binding studies of rat N13B2 anti-CD127 antibody. N13B2 antibody or MD707-1 were injected on a CD127 immobilized antigen at different concentration. Resp. diff: Response difference. Time: time in sec (total duration: 20 min). Blk: blank (no antibody). The association and dissociation curves were analyzed with model “Bivalent analyte” on BIAeval 4 software.
as §3

Binder	EC50 [1]	IC 50 of inhibition of IL7 induced P-STAT5 on T lymphocytes (0.1 ng/ml rhIL-7) [5]	IC50 on P-STAT5 induced by 100 pg/ml of rhIL7 [8]	inhibition of STAT5 phosphorylation in human PBMC [9]	Ka [10]	Kd [10]	koff [10]	kon [10]	EC50 [11]	further results
N13B2 wt (antibody, V domains shown, also called Rat N13B2 wt) VH: AVQLVESGGGLVQPGGSLKLSCAVSGFTLSDYYMAWVRQAPKKGLEWVATISASGLRTYYPDSVKGRFTISRDDAKRSLFLQMTSLKSEDTATYYCARPMSAHYGFNYFDYWGQGVMVTVSS VL: DIQMTQSPASLSASLGETVTIECRTSEDIYNGLAWYQQKPGKSPQLLVYSANSLHIGVPSRFSGSGSGTQYSLKINSLQFEDVASYFCQQYYDYPLAFGSGTKLEIKR	3 ng/mL	50.2 ng/mL								EC50 (read off the curve) [2]: ~3 ng/mL; EC50 (read off the curve) [3]: ~3 ng/mL; EC50 [4]: 3.6 ng/mL; EC50 [6]: 3.5 ng/mL; EC50 (read off the curve) [7]: ~4 ng/mL
N13B2-G4 (chimeric N13B2, human IgG4 Fc S228P, human CL kappa) (antibody, also called cN13B2-G4; N13B2-G4m) heavy: not shown light: DIQMTQSPASLSASLGETVTIECRTSEDIYNGLAWYQQKPGKSPQLLVYSANSLHIGVPSRFSGSGSGTQYSLKINSLQFEDVASYFCQQYYDYPLAFGSGTKLEIKRTVAAPSVFIFPPSDEQLKSGTASVVCLLNNFYPREAKVQWKVDNALQSGNSQESVTEQDSKDSTYSLSSTLTLSKADYEKHKVYACEVTHQGLSSPVTKSFNRGEC			0.037 ng/mL	> 50 % inhibition at 50 ng/ml and > 80 % inhibition at 100 ng/ml (0.1 ng/ml IL-7) and > 90 % inhibition at 100 ng/ml (5 ng/ml IL-7)	5.89e+09 M⁻¹	0.17 nM	3.41e-06 s⁻¹	20100 M⁻¹ s⁻¹	12.6 ng/mL	
N13B2-h2 (humanized N13B2) (antibody, V domains shown, Variable regions only) VH: QVQLVESGGGLVKPGGSLRLSCAVSGFTLSDYYMAWIRQAPGKGLEWVSTISASGLRTYYPDSVKGRFTISRDNAKNSLYLQMNSLRAEDTAVYYCARPMSAHYGFNYFDYWGQGTLVTVSS VL: EIVMTQSPATLSVSPGERATLSCRTSEDIYNGLAWYQQKPGQAPRLLIYSANSLHIGIPARFSGSGSGTEFTLTISSLQSEDFAVYYCQQYYDYPLAFGGGTKVEIK	0.6 ng/mL	18.7 ng/mL								
N13B2-h1 (humanized N13B2) (antibody, V domains shown) VH: QVQLVESGGGLVKPGGSLRLSCAVSGFTLSDYYMAWVRQAPGKGLEWVATISASGLRTYYPDSVKGRFTISRDDAKNSLYLQMNSLRAEDTAVYYCARPMSAHYGFNYFDYWGQGTLVTVSS VL: EIVMTQSPATLSVSPGERATLSCRTSEDIYNGLAWYQQKPGQAPRLLVYSANSLHIGIPARFSGSGSGTEYTLTISSLQSEDFAVYFCQQYYDYPLAFGGGTKVEIK	2.4 ng/mL	63.8 ng/mL								EC50 (read off the curve) [3]: ~2 ng/mL
N13B2 (rat anti-human CD127 monoclonal antibody) (antibody, V domains shown, Rat hybridoma antibody; It was detected with anti-rat kappa; also called rat N13B2; N13B2 mAb) VH: AVQLVESGGGLVQPGGSLKLSCAVSGFTLSDYYMAWVRQAPKKGLEWVATISASGLRTYYPDSVKGRFTISRDDAKRSLFLQMTSLKSEDTATYYCARPMSAHYGFNYFDYWGQGVMVTVSS VL: DIQMTQSPASLSASLGETVTIECRTSEDIYNGLAWYQQKPGKSPQLLVYSANSLHIGVPSRFSGSGSGTQYSLKINSLQFEDVASYFCQQYYDYPLAFGSGTKLEIKR			0.043 ng/mL	> 50 % inhibition at 50 ng/ml and > 80 % inhibition at 100 ng/ml (0.1 ng/ml IL-7) and > 90 % inhibition at 100 ng/ml (5 ng/ml IL-7)	2.03e+10 M⁻¹	0.0493 nM	4.75e-06 s⁻¹	96300 M⁻¹ s⁻¹	65.6 ng/mL	EC50 (read off the curve) [12]: ~60 ng/mL; Ka [13]: 1.26e+10 M⁻¹; Kd [13]: 0.0796 nM; koff [13]: 1.6e-05 s⁻¹; kon [13]: 201000 M⁻¹ s⁻¹
N13B2-G1 (chimeric N13B2, human IgG1 Fc E333A, human CL kappa) (antibody, also called cN13B2-G1; N13B2-G1m) heavy: not shown light: DIQMTQSPASLSASLGETVTIECRTSEDIYNGLAWYQQKPGKSPQLLVYSANSLHIGVPSRFSGSGSGTQYSLKINSLQFEDVASYFCQQYYDYPLAFGSGTKLEIKRTVAAPSVFIFPPSDEQLKSGTASVVCLLNNFYPREAKVQWKVDNALQSGNSQESVTEQDSKDSTYSLSSTLTLSKADYEKHKVYACEVTHQGLSSPVTKSFNRGEC			0.028 ng/mL	> 50 % inhibition at 50 ng/ml and > 80 % inhibition at 100 ng/ml (0.1 ng/ml IL-7) and > 90 % inhibition at 100 ng/ml (5 ng/ml IL-7)	2.65e+09 M⁻¹	0.377 nM	5.62e-05 s⁻¹	149000 M⁻¹ s⁻¹	12 ng/mL	
MD707-3 (rat anti-human CD127 antibody, previous generation) (antibody, V domains shown) VH: AVHLVESGGGLVQPKESLKISCAASGFTFSNAAMYWVRQAPGKGLEWVARIRTKANNYATYYAESVKGRFTISRDDSKSMVYLQMDNVKTDDTAMYYCIVVVLTTTRDYFDYWGQGVMVTVSS VL: DIVLTQAPLSVSVTPGESASISCRSSQSLLTVKGITSLYWFLQKPGKSPQLLIYRMSNLASGVPDRFRGSGSETDFTLKISKVETEDVGVYYCAQFLEYPHTFGAGTKLELKR			1.09 ng/mL						293 ng/mL	
